Data set [1] deals with T1, DnaA wild-type (Bacillus subtilis, UniProt P05648 1-446). Briefly: EMSA; 1 mM ADP; up to 250 nM DnaA; EMSA: 25 nM scaffold, 0-250 nM DnaA, 10 mM HEPES-KOH pH 8, 100 mM potassium glutamate, 1 mM magnesium acetate, 30% glycerol, 10% DMSO, 1 mM ADP or ATP, 20°C 2 h; 6% PAGE in 45 mM Tris, 45 mM boric acid, 5 mM MgCl2. The following applies: protein: recombinant; tags: N-terminal His-tag removed with Factor Xa; label: 5' Cy5 on strand 2; blunt; 3 strands, nick between strands 1 and 2, both annealed to strand 3.

In the next data set the target is DnaA I190A (Bacillus subtilis, UniProt P05648 1-446, I190A). Briefly: EMSA; 1 mM ADP; shift similar to wild-type; EMSA: 25 nM scaffold, 0-250 nM DnaA, 10 mM HEPES-KOH pH 8, 100 mM potassium glutamate, 1 mM magnesium acetate, 30% glycerol, 10% DMSO, 1 mM ADP or ATP, 20°C 2 h; 6% PAGE in 45 mM Tris, 45 mM boric acid, 5 mM MgCl2. To be noted: protein: recombinant; tags: N-terminal His-tag removed with Factor Xa; label: 5' Cy3 on strand 1; 5' Cy5 on strand 2; blunt; 3 strands, nick between strands 1 and 2, both annealed to strand 3. (In EMSA bound probe runs differently from free probe, usually more slowly.)

Data set [2] addresses T1, DnaA wild-type. The data set is described as follows: EMSA; 1 mM ADP; single shifted species; EMSA: 25 nM scaffold, 0-250 nM DnaA, 10 mM HEPES-KOH pH 8, 100 mM potassium glutamate, 1 mM magnesium acetate, 30% glycerol, 10% DMSO, 1 mM ADP or ATP, 20°C 2 h; 6% PAGE in 45 mM Tris, 45 mM boric acid, 5 mM MgCl2. To be noted: protein: recombinant; tags: N-terminal His-tag removed with Factor Xa; label: 5' Cy3 on strand 1; 5' Cy5 on strand 2; blunt; 3 strands, nick between strands 1 and 2, both annealed to strand 3.

B1: ΔDnaA-boxes long scaffold, oHM753/oHM590/oHM754 (dsDNA)
DNA 1: CGTTCGGCTGCGGCGAGCGGTATCAGCTCACTCAAAGGCGGTAATACGGCTTCCTTGCTTCCTTGCGGCCC
DNA 2: TACTATTACTTCTACTA
DNA 3: TAGTAGAAGTAATAGTAGGGCCGCAAGGAAGCAAGGAAGCCGTATTACCGCCTTTGAGTGAGCTGATACCGCTCGCCGCAGCCGAACG
As to B1, the binding result with DnaA wild-type [1] is given as “no binding”.

B2: Wild-type short scaffold (DnaA-box#6/7 + DnaA-trios), oHM752/oHM590/oHM558 (dsDNA)
DNA 1: ACTTATCCACAAATCCACAGGCCC
DNA 2: TACTATTACTTCTACTA
DNA 3: TAGTAGAAGTAATAGTAGGGCCTGTGGATTTGTGGATAAGT
Regarding B2, the binding result with DnaA I190A and with DnaA wild-type [2] was “binds” in each case.
